Measured values: US20020102709A1

What was measured:
[1] = biological target: bovine serum albumin (BSA, Sigma) (bovine) (UniProt P02769); experiment: ELISA, serum albumin coated, FNCBD-EGF (concentration not given), detection with anti-FNCBD monoclonal antibody
[2] = biological target: bovine serum albumin (BSA, Sigma) (bovine) (UniProt P02769); experiment: ELISA, serum albumin coated, 0.1 µg/ml FNCBD-FGF, detection with anti-FNCBD monoclonal antibody

UniProt P02769, sequence (P02769 25-607 limits assumed): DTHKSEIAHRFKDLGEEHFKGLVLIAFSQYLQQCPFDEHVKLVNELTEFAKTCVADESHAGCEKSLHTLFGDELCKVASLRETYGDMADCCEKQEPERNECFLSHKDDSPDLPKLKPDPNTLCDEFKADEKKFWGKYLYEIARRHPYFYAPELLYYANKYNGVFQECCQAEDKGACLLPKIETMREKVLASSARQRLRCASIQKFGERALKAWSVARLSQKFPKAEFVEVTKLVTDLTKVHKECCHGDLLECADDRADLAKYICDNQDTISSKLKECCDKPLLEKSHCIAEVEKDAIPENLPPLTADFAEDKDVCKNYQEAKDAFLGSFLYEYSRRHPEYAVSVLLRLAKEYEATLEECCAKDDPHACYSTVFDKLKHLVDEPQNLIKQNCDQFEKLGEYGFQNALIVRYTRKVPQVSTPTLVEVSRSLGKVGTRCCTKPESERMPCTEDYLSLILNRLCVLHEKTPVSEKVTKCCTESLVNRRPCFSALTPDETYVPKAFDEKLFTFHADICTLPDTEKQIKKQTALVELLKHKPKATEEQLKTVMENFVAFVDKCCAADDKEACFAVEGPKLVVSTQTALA

Substance: human FNCBD/human EGF hybrid polypeptide (FNCBD-EGF)
- absorption at 492 nm (absorption (492 nm)) [1]: 0.11

Substance: human FNCBD/human bFGF hybrid polypeptide (FNCBD-FGF)
- absorption at 492 nm (absorption (492 nm)) [2]: 0.27
